Results from patent publication US20080260729A1 (ZENYTH OPERATIONS, published 2008).
Substitutions are numbered along the chain they refer to.

T1: human VEGF-B10-108 (human, UniProt P49765 31-129)
T1 construct: also called VB108
T1 sequence: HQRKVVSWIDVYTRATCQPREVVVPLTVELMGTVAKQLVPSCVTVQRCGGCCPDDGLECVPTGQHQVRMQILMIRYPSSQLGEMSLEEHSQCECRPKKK

T2: 6×His.mVEGF-B10-108 (murine, UniProt P49766 31-129)
T2 construct: not shown: additional 16 N-terminal amino acids with 6xHis tag and Genenase I cleavage site
T2 sequence: T1 sequence with R3K, S7P, T13A, T27S, V28M, T33N, A35V, R75Q

B1: 2H10 murine Fab (Fab, V domains shown)
VH: QVQLQQPGTELVKPGASVKLSCKASGYTFTGFWIHWVKQRPGQGLEWIGHINPGNGGTNYNEKFKRMATLTVDKSSSTAYMQLSSLTSEDSAVYYCARSYSNYVRAMDYWGQGTSVTVSS
VL: EIQMTQTTSSLSASLGDRVTISCRASQDISNFLNWYQQKPDGTVKLLIYYTSTLHSGVPSRFSGSGSGTDYSLTISNLEQEDIATYFCQQGKTLPPTFGGGTKLEIK
B2: 2H10 CDR-grafted human germline Fab (CDR-Fab) (Fab, V domains shown)
VH: QVQLVQSGAEVKKPGASVKVSCKASGYTFTGFWIHWVRQAPGQGLEWMGHINPGNGGTNYNEKFKRRVTMTRDTSISTAYMELSRLRSDDTAVYYCARSYSNYVRAMDYWGQGTLVTVSS
VL: DIQMTQSPSSLSASVGDRVTITCRASQDISNFLNWYQQKPGKAPKLLIYYTSTLHSGVPSRFSGSGSGTDFTLTISSLQPEDFATYYCQQGKTLPPTFGGGTKVEIK
B3: CDR-Fab framework variant H73 (Fab, V domains shown)
VH: B2 VH with T74K
VL: B2 VL
B4: mouse-human chimeric Fab (2H10) (Fab, V domains shown)
VH: B1 VH
VL: B1 VL
B5: murine monoclonal antibody 2H10 (antibody, V domains shown)
VH: B1 VH
VL: B1 VL
notes: Whole murine mAb from hybridoma; also called mAb 2H10
B6: murine monoclonal antibody 4E12 (antibody, V domains shown)
VH: QVQPQQPGAELVKPGASVKMSCKASGDTFTNSWIGWVTQRPGQGLEWIGDIFPGSGHTNYNEKFKNRATLTVDTSSSTAYMLLSSLTSDDSAVYYCVIENYAWFAYWGQGTLVTVSA
VL: DIVMTQSQKFMSSSVGDRVSVTCKASQNVNTNVAWYQQKQGQSPRPLIYSASSRCSGVPDRFTGSGFGTDFTLTISNVQSEDLAEYFCQQYHSFPLTFGAGAKLDLK
notes: Whole murine mAb from hybridoma; also called mAb 4E12
B7: murine monoclonal antibody 1C6 (antibody, V domains shown)
VH: QVQLQQSGPELVKPGASVRISCKASGYTFTTFYIHWVKQRPGQGLEWIAWFYPGNVNTNYNEKFKDKATLTADKSSSAAYLQLNSLTSEDSAVYFCTRSPYYGYVFDFWGQGTTLTVSS
VL: DIVMTQSHKFMSTSVGDRVSITCKASQDVGSAVAWYQQKPGQSPKLLIYWASTRHTGVPDRFTGSGSGTDFTFTISNVQSEDLADYFCQQYSSSLTFGAGATKLEL
notes: Whole murine mAb from hybridoma; also called mAb 1C6

What was measured:
[1] = biological target: human VEGF-B (Example 10, form not stated) (human) (UniProt P49765); test: SPR (BIAcore), immobilised human VEGF-B, Fab injected at several concentrations
[2] = biological target: human VEGF-B (Example 10, form not stated) (human) (UniProt P49765); test: BIAcore dissociation rate, ratio
[3] = biological target: human VEGF-B (Example 10, form not stated) (human) (UniProt P49765); test: competition ELISA, plate bound human VEGF-B, soluble VEGF-B titrated
[4] = biological target: human VEGF-B (Example 10, form not stated) (human) (UniProt P49765); test: SPR (BIAcore), immobilised human VEGF-B
[5] = biological target: T1, human VEGF-B10-108; test: SPR (BIAcore 2000), VEGF-B10-108 amine-coupled on chip, mAb injected 125-0.98 nM
Description: A Biosensor-based approach was used for kinetic analysis of mAb binding to target VEGF-B using a BIAcore™ 2000 surface plasmon resonance instrument (Biacore AB, Uppsala, Sweden). A biosensor chip was activated for covalent coupling of VEGF-B using N-ethyl-N′-(3-dimethylaminopropyl)-carbodiimide hydrochloride (EDC) and N-hydroxysuccinimide (NHS) according to the supplier's (Biacore AB, Uppsala, Sweden) instructions. A solution of 5 μg/ml VEGF-B₁₀₋₁₀₈ in 20 mM sodium acetate, pH 4.8 was prepared and an aliquot (35 μl) was injected at a flow rate of 2 μl/min to achieve approximately 500-600 response units (RU) of coupled protein. Finally, 1 M ethanolamine was injected as a blocking agent.
For kinetics measurements, two-fold serial dilutions of test antibody starting at 125n M to 0.98 nM were injected in BIAcore™ buffer (20 mM HEPES, pH 7.8, 0.15 M NaCl, 3.4 mM EDTA, 0.005% Tween-20) with 1 mg/ml bovine serum albumin (BSA) at 25° C. at a flow rate of 15 μl/min. Simultaneous analysis of association (kₐ) and dissociation (kd) rate constants using BIAevaluation™ V3.02 software (Biacore AB, Uppsala, Sweden) was used to determine the equilibrium binding constant (KD).

[6] = biological target: T2, 6×His.mVEGF-B10-108; test: ELISA on plate-bound 6×His.mVEGF-B10-108
Description: (§1) Monoclonal antibodies raised against hVEGF-B were tested for cross-reactivity with mVEGF-B using a standard ELISA format. mAbs were incubated with plate bound hVEGF-B₁₀₋₁₀₈ or 6×His.mVEGF-B₁₀₋₁₀₈ at a concentration of 1.25 μg/ml and bound mAb visualized using a HRP-conjugated secondary reagent and TMB substrate.

[7] = biological target: T2, 6×His.mVEGF-B10-108; test: ELISA on plate-bound antigen, HRP secondary, TMB
Description: as §1

Row | Binder | Relative koff (koff CDR-Fab variant/koff murine-human chimera) [2] | Relative VEGF-B binding affinity (IC50 CDR-Fab variant/IC50 murine-human chimera) [3] | Kd [5] | koff [5] | kon [5] | other results
1 | B1 | – | – | – | – | – | Kd [1]: 0.115 nM
2 | B2 | 3.7 | 2.25 | – | – | – | Kd [1]: 0.66 nM
3 | B3 | 1.4 | 1.42 | – | – | – | Kd [4]: 0.337 nM; fold of KD against the 2H10 murine Fab [4]: < 3 fold
4 | B4 | 1 | 1 | – | – | – | –
5 | B5 | – | – | 0.18 nM | 6.77e-05 s⁻¹ | 385000 M⁻¹ s⁻¹ | binding result [6]: binds
6 | B6 | – | – | 2.71 nM | 0.000132 s⁻¹ | 48700 M⁻¹ s⁻¹ | binding result [7]: no binding (tested: 1.25 µg/ml)
7 | B7 | – | – | 2.82 nM | 0.000153 s⁻¹ | 54500 M⁻¹ s⁻¹ | binding result [6]: binds
